What was measured:
[1] = tested on: primary human cell cultures (11 cell types); assay: Custom gene array, 11 human cell types in normoxia or hypoxia for 6 hr and 18 hr; format: cell-based;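 for mRNA expression level, #1 HY 18 hr: cell type #1 is adipocyte from subcutaneous adult adipose tissue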;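 for mRNA expression level, #1 HY 6 hr: cell type #1 is adipocyte from subcutaneous adult adipose tissue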;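 for mRNA expression level, #1 NO: cell type #1 is adipocyte from subcutaneous adult adipose tissue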;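 for mRNA expression level, #2 HY 18 hr: cell type #2 is fetal cardiomyocyte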;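 for mRNA expression level, #2 HY 6 hr: cell type #2 is fetal cardiomyocyte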;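 for mRNA expression level, #2 NO: cell type #2 is fetal cardiomyocyte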;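 for mRNA expression level, #3 HY 6 hr: cell type #3 is human umbilical vein endothelial cells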;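 for mRNA expression level, #3 NO: cell type #3 is human umbilical vein endothelial cells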;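 for mRNA expression level, #4 HY 18 hr: cell type #4 is adult dermal fibroblast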;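 for mRNA expression level, #4 HY 6 hr: cell type #4 is adult dermal fibroblast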;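 for mRNA expression level, #4 NO: cell type #4 is adult dermal fibroblast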;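 for mRNA expression level, #5 HY 6 hr: cell type #5 is adult hepatocyte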;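 for mRNA expression level, #5 NO: cell type #5 is adult hepatocyte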;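 for mRNA expression level, #6 HY 6 hr: cell type #6 is blood-derived macrophage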;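 for mRNA expression level, #6 NO: cell type #6 is blood-derived macrophage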
In short: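 Values are each gene's expression relative to its median over all cell types and conditions, after per-array normalisation to control genes and merging of replicate arrays. Cells were 11 human types, mostly unmodified primary cultures, kept in normoxia or exposed to hypoxia for 6 hr or 18 hr.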

human macrophages = assay: Custom gene array, macrophages with no cytokines, IL-10 or LPS + IFN, in normoxia and hypoxia; format: cell-based; details: Table 15, referenced to the median value of that gene throughout all 6 conditions
Protocol: Macrophages were derived and cultured as described elsewhere in the specification. A total of 6 experimental conditions were analysed, as shown below. Where cells were treated with cytokines or hypoxia (0.1% oxygen), this was for 6 hr. Lipopolysaccharide (LPS) (from E.coli 026:B6; Sigma), gamma Interferon (IFN) and Interleukin-10 (IL-10) were all used at a final concentration of 100 ng/ml. The effect of gamma Interferon and Lipopolysaccharide is to activate macrophages, with a Th1 biased phenotype, as found in many inflammatory conditions. Interleukin-10 is a Th2 cytokine and de-activates macrophages, and suppresses their effector functions.

B1: p1E7 (nucleic acid, listed as Homo Sapiens)
DNA: GCTTGAGATCTCCAGCCTTACCGCGGCTCGAAATGGCCCCAACTGCTCCTGCACCACTGGTGTCTCCTGCANCTGCACCGGCTCCTGCAAGTGCAAAGAGTGCAAATGACCTCCTGCAAGAAGAGCTGCTGNNCTGCTGCCCCGTGGTGTGCAAGTGTGCCACGGTGTGTCTGCAAAGGGACGTTGGAGAACTGCAGCTGCTGTNCTGATGTGGGAACAAGCTCTTCTCCCAGATGTTAATAGAACAAGCTGCACAACCTGGGATTTTTTTTCAATACGATACTTGAGCCATTTTCTGCATTTCTTTTTATTGTTAAATATGTGAGTGACAATAAAACAATTTTGACTTTGAATCTTAAAAA
modifications: EST array clone; misc_feature 72, 132, 133, 205: n = A,T,C or G
[1]; cell type #1, hypoxia 6 hr
  mRNA expression level, #1 HY 6 hr: 1.29
[1]; cell type #1, hypoxia 18 hr
  mRNA expression level, #1 HY 18 hr: 1.63
[1]; cell type #1, normoxia
  mRNA expression level, #1 NO: 1.20
[1]; cell type #2, hypoxia 6 hr
  mRNA expression level, #2 HY 6 hr: 0.18
[1]; cell type #2, hypoxia 18 hr
  mRNA expression level, #2 HY 18 hr: 0.22
[1]; cell type #2, normoxia
  mRNA expression level, #2 NO: 0.12
[1]; cell type #3, hypoxia 6 hr
  mRNA expression level, #3 HY 6 hr: 1.03
[1]; cell type #3, hypoxia 18 hr
  mRNA expression level, #3 HY 18 hr: 0.71
[1]; cell type #3, normoxia
  mRNA expression level, #3 NO: 1.40
[1]; cell type #4, hypoxia 6 hr
  mRNA expression level, #4 HY 6 hr: 2.17
[1]; cell type #4, hypoxia 18 hr
  mRNA expression level, #4 HY 18 hr: 2.85
[1]; cell type #4, normoxia
  mRNA expression level, #4 NO: 2.36
[1]; cell type #5, hypoxia 6 hr
  mRNA expression level, #5 HY 6 hr: 6.75
[1]; cell type #5, normoxia
  mRNA expression level, #5 NO: 4.89
[1]; cell type #6, hypoxia 6 hr
  mRNA expression level, #6 HY 6 hr: 1.07
[1]; cell type #6, hypoxia 18 hr
  #6 HY 18 hr (mRNA expression level): 0.86
[1]; cell type #6, normoxia
  mRNA expression level, #6 NO: 0.08
[1]; cell type #7, hypoxia 6 hr
  #7 HY 6 hr (mRNA expression level): 2.06
[1]; cell type #7, hypoxia 18 hr
  #7 HY 18 hr (mRNA expression level): 1.32
[1]; cell type #7, normoxia
  #7 NO (mRNA expression level): 0.87
[1]; cell type #8, hypoxia 6 hr
  #8 HY 6 hr (mRNA expression level): 0.75
[1]; cell type #8, hypoxia 18 hr
  #8 HY 18 hr (mRNA expression level): 1.20
[1]; cell type #8, normoxia
  #8 NO (mRNA expression level): 0.03
[1]; cell type #9, hypoxia 6 hr
  #9 HY 6 hr (mRNA expression level): 0.05
[1]; cell type #9, hypoxia 18 hr
  #9 HY 18 hr (mRNA expression level): 0.04
[1]; cell type #9, normoxia
  #9 NO (mRNA expression level): 0.04
[1]; cell type #10, hypoxia 6 hr
  #10 HY 6 hr (mRNA expression level): 2.60
[1]; cell type #10, hypoxia 18 hr
  #10 HY 18 hr (mRNA expression level): 3.60
[1]; cell type #10, normoxia
  #10 NO (mRNA expression level): 3.09
[1]; cell type #11, hypoxia 6 hr
  #11 HY 6 hr (mRNA expression level): 0.70
[1]; cell type #11, hypoxia 18 hr
  #11 HY 18 hr (mRNA expression level): 0.74
[1]; cell type #11, normoxia
  #11 NO (mRNA expression level): 0.60
[1]; hypoxia/normoxia induction ratio, 18 hr monocyte
  HIGHEST FOLD CHANGE IN HYPOXIA (hr hypoxia + cell type): 37.9 (18 hr monocyte) fold
Human macrophages; #1 no cytokines/normoxia
  mRNA EXPRESSION (experimental condition) #1: 0.49
Human macrophages; #2 no cytokines/hypoxia
  mRNA EXPRESSION (experimental condition) #2: 1.26
Human macrophages; #3 IL-10/normoxia
  mRNA EXPRESSION (experimental condition) #3: 0.70
Human macrophages; #4 IL-10/hypoxia
  mRNA EXPRESSION (experimental condition) #4: 1.11
Human macrophages; #5 LPS/IFN/normoxia
  mRNA EXPRESSION (experimental condition) #5: 1.32
Human macrophages; #6 LPS/IFN/hypoxia
  mRNA EXPRESSION (experimental condition) #6: 2.89

— US20030203372A1, “Analysis method” (priority 2000, published 2003)
